Assay results taken from PMC11374688, “Structural basis for transthiolation intermediates in the ubiquitin pathway” (Nature, 2024).

Target: T1, Schizosaccharomyces pombe Uba1 (lacking the first 12 amino acids) (S. pombe, UniProt O94609 13-1012, active site cysteine thiol linked to the dithioacetal carbon of the Ub(T) Gly76 surrogate)
T1 construct: Full-length Uba1 was used in the transthiolation assays; this molecule also stands for it in the functional rows; also called E1; source: E. coli BL21 (DE3) codon plus, purified (Ni-NTA, Ulp1, SEC, MonoQ)
T1 sequence (looked up): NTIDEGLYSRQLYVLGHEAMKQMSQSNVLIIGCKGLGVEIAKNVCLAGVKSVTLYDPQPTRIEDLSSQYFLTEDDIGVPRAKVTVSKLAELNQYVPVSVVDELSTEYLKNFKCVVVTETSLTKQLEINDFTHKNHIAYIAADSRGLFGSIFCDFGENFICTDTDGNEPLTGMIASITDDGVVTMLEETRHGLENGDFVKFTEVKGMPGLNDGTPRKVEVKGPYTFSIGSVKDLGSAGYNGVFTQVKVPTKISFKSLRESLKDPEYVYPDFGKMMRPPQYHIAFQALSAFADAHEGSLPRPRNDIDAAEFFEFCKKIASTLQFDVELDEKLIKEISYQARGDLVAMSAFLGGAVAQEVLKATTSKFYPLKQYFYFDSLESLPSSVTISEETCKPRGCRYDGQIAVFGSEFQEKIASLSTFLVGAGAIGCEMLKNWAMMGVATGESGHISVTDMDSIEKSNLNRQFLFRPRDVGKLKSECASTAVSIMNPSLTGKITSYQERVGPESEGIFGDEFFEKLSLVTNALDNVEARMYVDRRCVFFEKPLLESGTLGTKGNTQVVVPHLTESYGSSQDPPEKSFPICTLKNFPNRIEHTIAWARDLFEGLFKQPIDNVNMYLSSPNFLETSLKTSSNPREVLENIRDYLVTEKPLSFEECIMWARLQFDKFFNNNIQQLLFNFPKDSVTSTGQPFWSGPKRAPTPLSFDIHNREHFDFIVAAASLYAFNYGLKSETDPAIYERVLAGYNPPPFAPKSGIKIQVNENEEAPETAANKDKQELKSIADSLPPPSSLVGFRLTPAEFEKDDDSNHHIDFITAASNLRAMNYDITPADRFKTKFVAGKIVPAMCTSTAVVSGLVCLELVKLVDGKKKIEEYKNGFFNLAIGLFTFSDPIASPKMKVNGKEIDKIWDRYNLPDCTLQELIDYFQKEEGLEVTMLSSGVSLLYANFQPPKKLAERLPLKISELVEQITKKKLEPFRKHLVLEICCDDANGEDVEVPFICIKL
Assay: cryo-EM structure; E1–Ub(T)–E2 (Ub(T) Gly76 surrogate covalently linked to the E1 and E2 active site cysteines) at 3 mg/ml in Tris-HCl pH 7.2, 100 mM NaCl, preincubated 30 min on ice with 5 mM MgCl2, 1 mM ATP and ~0.8 molar equivalents of Ub; 0.05% CHAPSO; doubly and singly loaded complexes resolved from the same sample
Conditions: both partners purified

B1: S. pombe Ub without tags (natural protein)
chain: not shown
notes: In clusters 3 to 5 of the doubly loaded complex the C terminus of Ub(A) is adenylated (Ub(A)-AMP); also called Ub(A); native Ub; source: E. coli BL21 (DE3) codon plus, purified (as described previously, with additional SEC)
binding result: binds
